Measured values as given in publication PMC8250900.

Columns and labels:
SARS-CoV-2 spike RBD = SARS-CoV-2 spike RBD (SARS-CoV-2, UniProt P0DTC2 319-591); assay: flow cytometry
[1] = molecular target: T1, SARS-CoV spike extracellular domain (CoV-S) (SARS-CoV, UniProt P59594 14-1190); assay: flow cytometry
[2] = molecular target: T2, ACE2 extracellular domain (human, UniProt Q9BYF1 19-615); assay: flow cytometry
[3] = molecular target: T1, SARS-CoV spike extracellular domain …; assay: pull-down
[4] = molecular target: T2, ACE2 extracellular domain; assay: pull-down
Nek7 = Nek7 (human, UniProt Q8TDX7 1-302); assay: pull-down
Chain of Nek7 (Q8TDX7 whole entry): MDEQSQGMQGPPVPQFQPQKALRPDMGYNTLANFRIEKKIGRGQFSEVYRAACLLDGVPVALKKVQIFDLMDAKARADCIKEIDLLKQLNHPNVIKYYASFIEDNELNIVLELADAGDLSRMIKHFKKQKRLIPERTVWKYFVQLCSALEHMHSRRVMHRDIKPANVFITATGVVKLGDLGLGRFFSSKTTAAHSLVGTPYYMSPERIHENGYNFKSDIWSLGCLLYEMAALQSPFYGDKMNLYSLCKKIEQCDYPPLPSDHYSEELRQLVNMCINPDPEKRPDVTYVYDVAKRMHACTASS

T2 sequence (Q9BYF1 19-615): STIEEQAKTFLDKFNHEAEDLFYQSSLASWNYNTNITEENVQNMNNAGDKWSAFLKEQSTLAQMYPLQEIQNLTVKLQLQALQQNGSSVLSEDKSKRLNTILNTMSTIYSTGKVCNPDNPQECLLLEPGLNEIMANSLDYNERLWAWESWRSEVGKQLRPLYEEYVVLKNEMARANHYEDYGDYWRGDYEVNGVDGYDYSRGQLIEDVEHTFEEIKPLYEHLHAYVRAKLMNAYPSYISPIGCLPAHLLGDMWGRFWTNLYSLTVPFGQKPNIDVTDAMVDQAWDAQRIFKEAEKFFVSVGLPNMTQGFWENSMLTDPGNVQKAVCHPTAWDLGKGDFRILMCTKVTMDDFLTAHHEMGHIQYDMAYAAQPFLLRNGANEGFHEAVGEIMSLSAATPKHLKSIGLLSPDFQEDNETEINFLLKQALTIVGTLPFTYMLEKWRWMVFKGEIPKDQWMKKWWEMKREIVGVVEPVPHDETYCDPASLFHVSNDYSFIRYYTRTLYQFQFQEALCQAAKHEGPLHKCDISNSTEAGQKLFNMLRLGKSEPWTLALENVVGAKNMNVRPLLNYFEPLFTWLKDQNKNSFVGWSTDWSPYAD

B1: RBD4 (ssDNA)
DNA: GGGAGAGGAGGGAGATAGATATCAATGGGTGGGAGGGAGGGGGGCTTTATTCCGGTGTTTTTTCGTTTCGTGGATGCCACAGGAC
binding result (SARS-CoV-2 spike RBD): binds

B2: SP6 (ssDNA)
DNA: GGGAGAGGAGGGAGATAGATATCAACCCATGGTAGGTATTGCTTGGTAGGGATAGTGGGCTTGATGTTTCGTGGATGCCACAGGAC
binding result (SARS-CoV-2 spike RBD): no binding | binding result [1]: no binding | binding result [2]: no binding

B3: SP6 biotin (ssDNA)
DNA: B2 DNA
binding result [3]: no binding | binding result [4]: no binding | binding result (Nek7): no binding

B4: SP5 (ssDNA)
DNA: GGGAGAGGAGGGAGATAGATATCAACCATGGTAGGTATTGCTTGGTAGGGATAGTGGGCTTGATGTTTCGTGGATGCCACAGGAC
binding result (SARS-CoV-2 spike RBD): no binding | binding result [1]: no binding | binding result [2]: no binding

B5: RBD3 (ssDNA)
DNA: GGGAGAGGAGGGAGATAGATATCAATGGGTGTTTTGGTTGTAGGGTTTAGGTTTAGGGTACTCTTTTTCGTGGATGCCACAGGAC
binding result (SARS-CoV-2 spike RBD): binds

B6: RBD2 (ssDNA)
DNA: GGGAGAGGAGGGAGATAGATATCAATACAGTTGGTTGTAGGTTTTTGTTAGGTTAGTTTAGGGTTTTTCGTGGATGCCACAGGAC
binding result (SARS-CoV-2 spike RBD): binds

B7: SP7 (ssDNA)
DNA: GGGAGAGGAGGGAGATAGATATCAAAGGAGGGTAGGTAGTGCTTGGTAGGGAAACTCCGCCGATTTTTCGTGGATGCCACAGGAC
binding result (SARS-CoV-2 spike RBD): no binding | binding result [1]: no binding | binding result [2]: no binding

B8: RBD1 (ssDNA)
DNA: GGGAGAGGAGGGAGATAGATATCAAGTTAGGTTCTGGATTAGGTTAGGGTTGTGTTGTTGTTAGGTTTCGTGGATGCCACAGGAC
binding result (SARS-CoV-2 spike RBD): binds
